Measurements as given in article PMC10288612.

B1: monomer-T (monomer-9T) (ssDNA)
DNA: TTTTTTTTTGCAGCGGTGTGGGG
B2: monomer (ssDNA)
DNA: GCAGCGGTGTGGGG
B3: trimer (ssDNA)
DNA: GCAGCGGTGTGGGGGCAGCGGTGTGGGGGCAGCGGTGTGGGGTTTTT
B4: dimer (ssDNA)
DNA: TTTTTTGCAGCGGTGTGGGGGCAGCGGTGTGGGG

Target: HER-2/neu extracellular domain (ErbB2) (human, UniProt P04626 23-652)
Assay: electrochemical bead sandwich assay

**Q.** With B1 as the binder, how does the Kd read?
**A.** The Kd was 0.085 pM.

**Q.** With B2 as the binder, how does the Kd read?
**A.** The Kd was 0.121 pM.

**Q.** For B3, which Kd is on record?
**A.** Its Kd is 0.0261 pM.

**Q.** With B4 as the binder, how does the Kd read?
**A.** Its Kd is 0.0374 pM.
